These results are taken from US20130137856A1 (published 2013).

Assay [1] addresses β2AR truncated after amino acid 365 (β2AR-365) having an amino terminal Flag epitope tag, native, … (human, UniProt P07550 1-365). In words: cell-based or functional assay.
Assay [2] deals with full-length human β2AR in commercial insect cell-derived membranes (human, UniProt P07550 1-413). In words: cell-based or functional assay.

Residue numbers refer to the chain shown, from its start.

B1: Nb71 (VHH, not shown: small tags and cut ends)
VHH: QVQLQESGGGLVQPGGSLRLSCAASGFAFSSYELRWYRQAPGKQHELVAGITTGGNTYYADSVKGRFTISRDNAKNTVYLQMSNLRPEDTAVYACNANWDLLSDYWGQGTQVTVSS
In the case of B1, the “Isoproterenol Ki, [3H]-DHA competition binding on Sf9 membranes in the presence of 1 µM nanobody (β2AR alone: 295)” value (shortened to “Isoproterenol Ki”) in assay [1] worked out at 10.6 nM.

B2: Nanobody-80 (Nb80) (VHH, not shown: small tags and cut ends)
VHH: QVQLQESGGGLVQAGGSLRLSCAASGSIFSINTMGWYRQAPGKQRELVAAIHSGGSTNYANSVKGRFTISRDNAANTVYLQMNSLKPEDTAVYYCNVKDYGAVLYEYDYWGQGTQVTVSS
Take B2: in assay [2], the “Potency shift of CGP12177A (antagonist): IC50 with irrelevant Nb / IC50 with 500 nM Nb80, 3H-DHA competition” value came to 1 ratio; the “Potency shift of ICI118,551 (inverse agonist): IC50 with irrelevant Nb / IC50 with 500 nM Nb80, 3H-DHA competition” value turned out to be 0.9 ratio; the “Potency shift of alprenolol (antagonist): IC50 with irrelevant Nb / IC50 with 500 nM Nb80, 3H-DHA competition” value came to 1.1 ratio; the “Potency shift of carvedilol (antagonist): IC50 with irrelevant Nb / IC50 with 500 nM Nb80, 3H-DHA competition” value was 1.2 ratio. In addition, in assay [2], the “Potency shift of dobutamine (partial agonist): IC50 with irrelevant Nb / IC50 with 500 nM Nb80, 3H-DHA competition” value turned out to be 2.3 ratio; the “Potency shift of fenoterol (full agonist): IC50 with irrelevant Nb / IC50 with 500 nM Nb80, 3H-DHA competition” value was 3.7 ratio; the “Potency shift of formoterol (agonist): IC50 with irrelevant Nb / IC50 with 500 nM Nb80, 3H-DHA competition” value was 4 ratio; the “Potency shift of isoproterenol (agonist): IC50 with irrelevant Nb / IC50 with 500 nM Nb80, 3H-DHA competition” value is 8.8 ratio. In assay [2], the “Potency shift of metaproterenol (agonist): IC50 with irrelevant Nb / IC50 with 500 nM Nb80, 3H-DHA competition” value worked out at 2.9 ratio; the “Potency shift of procaterol (agonist): IC50 with irrelevant Nb / IC50 with 500 nM Nb80, 3H-DHA competition” value turned out to be 2.3 ratio; the “Potency shift of ritodrine (agonist): IC50 with irrelevant Nb / IC50 with 500 nM Nb80, 3H-DHA competition” value turned out to be 2.7 ratio; the “Potency shift of salbutamol (partial agonist): IC50 with irrelevant Nb / IC50 with 500 nM Nb80, 3H-DHA competition” value turned out to be 4.2 ratio. Moreover, in assay [2], the “Potency shift of salmeterol (full agonist): IC50 with irrelevant Nb / IC50 with 500 nM Nb80, 3H-DHA competition” value was found to be 3.3 ratio; the “Potency shift of terbutaline (partial agonist): IC50 with irrelevant Nb / IC50 with 500 nM Nb80, 3H-DHA competition” value came out at 4.3 ratio; the “Potency shift of timolol (antagonist): IC50 with irrelevant Nb / IC50 with 500 nM Nb80, 3H-DHA competition” value turned out to be 0.6 ratio.

B3: Nb65 (VHH, not shown: small tags and cut ends)
VHH: B2 VHH with N61D, K64R, A75K
In the case of B3, the “Isoproterenol Ki” value in assay [1] was determined as 13.8 nM.

B4: Nb67 (VHH, not shown: small tags and cut ends)
VHH: QVQLQESGGGLVQAGGSLRLSCAASGTISSFIAMGWYRQSPGKQRELVAGITSGGETNYEDSVKGRFTISRDNAKNTLYLQMNTLKPEDTAVYYCNAQVFADIFNLINYWGQGTQVTVSS
B4: the “Isoproterenol Ki” value in assay [1] amounted to 19.4 nM.
